One block for each binder: values may come before it.
Assays:
4H2148-AA = target: T1, 4H2148-AA; experiment: two-hybrid library CCmax;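 also: natural log of median RNA to DNA barcode read ratio; higher means stronger binding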
T1 chain: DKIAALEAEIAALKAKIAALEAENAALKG

4H2290-AA = target: T2, 4H2290-AA; experiment: two-hybrid library CCmax; details: mean of both orientations;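 also: natural log of median RNA to DNA barcode read ratio; higher means stronger binding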
T2 chain: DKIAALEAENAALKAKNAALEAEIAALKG

4H2447-AA = target: T3, 4H2447-AA; experiment: two-hybrid library CCmax; details: mean of both orientations;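 also: natural log of median RNA to DNA barcode read ratio; higher means stronger binding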
T3 chain: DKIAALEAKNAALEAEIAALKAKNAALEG

4H2458-AA = target: T4, 4H2458-AA; experiment: two-hybrid library CCmax; details: mean of both orientations;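 also: natural log of median RNA to DNA barcode read ratio; higher means stronger binding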
T4 chain: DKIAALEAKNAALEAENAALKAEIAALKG

4H3330-AA = target: T5, 4H3330-AA; experiment: two-hybrid library CCmax; details: mean of both orientations;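 also: natural log of median RNA to DNA barcode read ratio; higher means stronger binding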
T5 chain: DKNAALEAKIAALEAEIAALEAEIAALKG

4H716-AA = target: T6, 4H716-AA; experiment: two-hybrid library CCmax; details: mean of both orientations;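 also: natural log of median RNA to DNA barcode read ratio; higher means stronger binding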
T6 chain: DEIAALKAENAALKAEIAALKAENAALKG

4H733-AA = target: T7, 4H733-AA; experiment: two-hybrid library CCmax; details: mean of both orientations
T7 chain: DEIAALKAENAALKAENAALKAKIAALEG

4H807-AA = target: T8, 4H807-AA; experiment: two-hybrid library CCmax; details: mean of both orientations
T8 chain: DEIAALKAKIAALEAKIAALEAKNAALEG

APC1015-AA = target: T9, APC1015-AA; experiment: two-hybrid library CCmax; details: mean of both orientations
T9 chain: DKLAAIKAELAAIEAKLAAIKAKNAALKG

APC1434-AA = target: T10, APC1434-AA; experiment: two-hybrid library CCmax; details: mean of both orientations
T10 chain: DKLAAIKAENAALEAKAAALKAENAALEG

APC2237-AA = target: T11, APC2237-AA; experiment: two-hybrid library CCmax; details: mean of both orientations
T11 chain: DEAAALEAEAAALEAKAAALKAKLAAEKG

APC232-AA = target: T12, APC232-AA; experiment: two-hybrid library CCmax; details: mean of both orientations
T12 chain: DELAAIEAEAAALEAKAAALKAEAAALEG

APC2405-AA = target: T13, APC2405-AA; experiment: two-hybrid library CCmax; details: mean of both orientations
T13 chain: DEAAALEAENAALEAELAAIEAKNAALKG

APC3645-AA = target: T14, APC3645-AA; experiment: two-hybrid library CCmax; details: mean of both orientations
T14 chain: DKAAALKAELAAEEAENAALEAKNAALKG

APC4011-AA = target: T15, APC4011-AA; experiment: two-hybrid library CCmax; details: mean of both orientations
T15 chain: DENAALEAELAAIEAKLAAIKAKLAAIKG

APC4264-AA = target: T16, APC4264-AA; experiment: two-hybrid library CCmax; details: mean of both orientations
T16 chain: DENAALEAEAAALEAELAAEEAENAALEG

APC4436-AA = target: T17, APC4436-AA; experiment: two-hybrid library CCmax; details: mean of both orientations
T17 chain: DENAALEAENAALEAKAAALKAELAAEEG

APC5383-AA = target: T18, APC5383-AA; experiment: two-hybrid library CCmax; details: mean of both orientations
T18 chain: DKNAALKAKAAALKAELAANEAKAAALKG

APC6108-AA = target: T19, APC6108-AA; experiment: two-hybrid library CCmax; details: mean of both orientations
T19 chain: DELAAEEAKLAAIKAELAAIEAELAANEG

APC7099-AA = target: T20, APC7099-AA; experiment: two-hybrid library CCmax; details: mean of both orientations
T20 chain: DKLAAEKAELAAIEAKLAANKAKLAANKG

APC8191-AA = target: T21, APC8191-AA; experiment: two-hybrid library CCmax; details: mean of both orientations
T21 chain: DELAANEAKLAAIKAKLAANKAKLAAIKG

APC8910-AA = target: T22, APC8910-AA; experiment: two-hybrid library CCmax; details: mean of both orientations
T22 chain: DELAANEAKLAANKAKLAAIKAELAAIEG

APC9096-AA = target: T23, APC9096-AA; experiment: two-hybrid library CCmax; details: mean of both orientations
T23 chain: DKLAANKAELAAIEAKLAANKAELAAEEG

APC9319-AA = target: T24, APC9319-AA; experiment: two-hybrid library CCmax; details: mean of both orientations
T24 chain: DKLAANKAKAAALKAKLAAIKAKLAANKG

4H2883-bH = target: T25, 4H2883-bH; experiment: two-hybrid library CCNG1
T25 chain: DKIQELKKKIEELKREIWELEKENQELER

4H2937-bH = target: T26, 4H2937-bH; experiment: two-hybrid library CCNG1
T26 chain: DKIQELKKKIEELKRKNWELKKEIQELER

4H2944-bH = target: T27, 4H2944-bH; experiment: two-hybrid library CCNG1
T27 chain: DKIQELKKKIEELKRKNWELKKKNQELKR

4H342-bH = target: T28, 4H342-bH; experiment: two-hybrid library CCNG1
T28 chain: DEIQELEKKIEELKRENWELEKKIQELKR

4H48-bH = target: T29, 4H48-bH; experiment: two-hybrid library CCNG1
T29 chain: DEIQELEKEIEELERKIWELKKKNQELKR

4H491-bH = target: T30, 4H491-bH; experiment: two-hybrid library CCNG1
T30 chain: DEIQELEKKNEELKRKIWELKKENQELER

interaction score (4H2148-AA): 1.63
interaction score (4H2290-AA): -1.47
interaction score (4H2447-AA): -1.42
interaction score (4H2458-AA): -1.46
interaction score (4H3330-AA): -0.193
interaction score (4H716-AA): -1.22
interaction score (4H733-AA): -1.59
interaction score (4H807-AA): -1.41
interaction score (APC1015-AA): 0.959
interaction score (APC1434-AA): -1.39
interaction score (APC2237-AA): -1.14
interaction score (APC232-AA): -1.38
interaction score (APC2405-AA): -1.19
interaction score (APC3645-AA): -1.31
interaction score (APC4011-AA): -0.327
interaction score (APC4264-AA): -1.81
interaction score (APC4436-AA): -1.32
interaction score (APC5383-AA): -1.66
interaction score (APC6108-AA): -1.13
interaction score (APC7099-AA): -1.55
interaction score (APC8191-AA): -1.4
interaction score (APC8910-AA): -1.35
interaction score (APC9096-AA): -1.24
interaction score (APC9319-AA): -1.42
Binder: DKIAALEAEIAALKAKIAALEAENAALKG [4H2148-AA]

interaction score (4H2883-bH): 1.73
interaction score (4H2937-bH): 0.674
interaction score (4H2944-bH): 0.783
interaction score (4H342-bH): -0.175
interaction score (4H48-bH): 1.17
interaction score (4H491-bH): 0.298
Binder: DKIQELKKKIEELKREIWELEKENQELER [4H2883-bH]

— article PMC10397247
